PMC4208029 (Scientific Reports, 2014)

Target: T1, human full-length glucose transporter GLUT-1 (human, UniProt P11166 1-492)
T1 sequence (looked up): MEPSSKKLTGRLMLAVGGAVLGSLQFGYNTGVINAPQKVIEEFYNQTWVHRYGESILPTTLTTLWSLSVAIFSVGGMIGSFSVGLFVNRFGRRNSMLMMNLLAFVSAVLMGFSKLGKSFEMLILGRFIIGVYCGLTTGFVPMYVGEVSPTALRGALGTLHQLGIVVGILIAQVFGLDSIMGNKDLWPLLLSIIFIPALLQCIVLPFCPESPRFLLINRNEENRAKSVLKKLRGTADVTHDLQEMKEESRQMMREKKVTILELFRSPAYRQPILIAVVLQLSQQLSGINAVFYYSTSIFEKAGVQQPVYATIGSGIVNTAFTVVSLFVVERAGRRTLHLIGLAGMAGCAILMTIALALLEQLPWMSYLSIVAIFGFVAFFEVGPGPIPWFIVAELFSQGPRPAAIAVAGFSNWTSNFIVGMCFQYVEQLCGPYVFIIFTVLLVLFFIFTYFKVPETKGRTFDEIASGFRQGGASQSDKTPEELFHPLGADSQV
Assay: SPR

B1: Nb-GLUT-1 (VHH)
VHH: QVQLLESGGGLVQPGGSLRLSCAASGFTFSSYAMSWVRQAPGKGLEWVSTITAKGRQTYYADSVKGRFTISRDNSKNTLYLQMNSLRAEDTAVYYCATGPMYQPQFGSWGQGTLVTVSS
Kd: 22.3 nM | koff: 0.0016 s⁻¹ | kon: 120000 M⁻¹ s⁻¹
